Test results as given in article PMC2579254 (The EMBO Journal, 2008).

B2: ROCK-I^1−406 (kinase and N-terminal dimerisation domains), His tag cleaved (domain or fragment, UniProt Q13464 1-406, looked up)
chain: MSTGDSFETRFEKMDNLLRDPKSEVNSDCLLDGLDALVYDLDFPALRKNKNIDNFLSRYKDTINKIRDLRMKAEDYEVVKVIGRGAFGEVQLVRHKSTRKVYAMKLLSKFEMIKRSDSAFFWEERDIMAFANSPWVVQLFYAFQDDRYLYMVMEYMPGGDLVNLMSNYDVPEKWARFYTAEVVLALDAIHSMGFIHRDVKPDNMLLDKSGHLKLADFGTCMKMNKEGMVRCDTAVGTPDYISPEVLKSQGGDGYYGRECDWWSVGVFLYEMLVGDTPFYADSLVGTYSKIMNHKNSLTFPDDNDISKEAKNLICAFLTDREVRLGRNGVEEIKRHLFFKNDQWAWETLRDTVAPVVPDLSSDIDTSNFDDLEEDKGEEETFPIPKAFVGNQLPFVGFTYYSNRRYL

Assays:
[1] = target: B2; assay: crystal structure
[2] = target: the molecule itself; assay: crystal structure
[3] = target: His6-ROCK-I^1−406 (purified without cleavage of the His6 tag) (UniProt Q13464 1-406); assay: pull-down

B1: RhoE^1−200 (RhoE-GTP/Mg2+, residues 1–200) (domain or fragment, UniProt P61587 1-200, looked up)
chain: MKERRASQKLSSKSIMDPNQNVKCKIVVVGDSQCGKTALLHVFAKDCFPENYVPTVFENYTASFEIDTQRIELSLWDTSGSPYYDNVRPLSYPDSDAVLICFDISRPETLDSVLKKWKGEIQEFCPNTKMLLVGCKSDLRTDVSTLVELSNHRQTPVSYDQGANMAKQIGAATYIECSALQSENSVRDIFHVATLACVNK
B1: binds [1].

For B2, the “stoichiometry N” value [2] was 2.

B3: GST–RhoE^WT (natural protein, UniProt P61587 1-244, looked up)
chain: MKERRASQKLSSKSIMDPNQNVKCKIVVVGDSQCGKTALLHVFAKDCFPENYVPTVFENYTASFEIDTQRIELSLWDTSGSPYYDNVRPLSYPDSDAVLICFDISRPETLDSVLKKWKGEIQEFCPNTKMLLVGCKSDLRTDVSTLVELSNHRQTPVSYDQGANMAKQIGAATYIECSALQSENSVRDIFHVATLACVNKTNKNVKRNKSQRATKRISHMPSRPELSAVATDLRKDKAKSCTVM
B3: binds [3].
